Laboratory results taken from patent publication US20260042834A1 (HBM ALPHA THERAPEUTICS, published 2026).
Substitutions are numbered along the chain they refer to. One block for each binder: values may come before it.

Experiments:
[1] = molecular target: T1, corticotropin-releasing hormone (CRH) peptide (human and mouse, not fully specified); assay: cell-based or functional assay
T1 peptide: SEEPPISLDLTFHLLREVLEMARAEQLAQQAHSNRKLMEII

[2] = molecular target: T2, CRH (CT-Biotin) (human and mouse, biotin on the added C-terminal K (-K-Biotin)); assay: ELISA, C-terminally biotinylated CRH on streptavidin-coated plate
T2 construct: also called Peptide 4 (CRH-Biotin); C-terminally biotinylated corticotropin-releasing hormone
T2 peptide: T1 peptide
Method: (§1) Streptavidin (Thermo, Cat: 21125) was diluted in PBS to a concentration of 2 μg/ml. 100 μl of diluted streptavidin was added per well to ELISA microplates, and the plates were incubated overnight at 4° C. […] 100 μL of 3,3′,5,5′-tetramethylbenzidine (TMB) substrate (Biopanda, Cat: TMB-S-003) was added, and the plates were incubated at room temperature for 15 minutes. 100 μL of ELISA stopping solution (Solarbio, Cat #: C1058) was added to terminate the reaction, and the optical density at 450 nm (OD450 nm) was determined by an ELISA plate reader (Molecular Devices, Spectra max 384 plus).

[3] = molecular target: T3, CRH (NT-Biotin) (human and mouse, not fully specified; biotin at the N-terminus); assay: ELISA, N-terminally biotinylated CRH on streptavidin-coated plate
T3 construct: also called Biotin-CRH; N-terminally biotinylated corticotropin-releasing hormone
T3 peptide: T1 peptide
Method: as §1

[4] = molecular target: T4, CRH (CT-Biotin) (human and mouse (same sequence), biotin on an added C-terminal K (CRH-K-Biotin)); assay: ELISA, biotinylated CRH on streptavidin plate
T4 construct: also called Peptide 4 (CRH-Biotin)
T4 peptide: T1 peptide
Method: as §1

[5] = molecular target: T5, corticotropin-releasing hormone (CRH) peptide (human and mouse (same sequence), not fully specified); assay: cell-based or functional assay
T5 peptide: T1 peptide

hCRHR1 Reporter IC50 [1]: 13.9 nM
EC50 [2]: 0.008 nM
EC50 [3]: 0.014 nM
B1: PR302315 (antibody, human IgG1, kappa, V domains shown)
VH: DVQLVESGGGLMQPGGSRKLSCVASGFTFSSFGMHWVRQAPEKGLEWVAYISSGSSIIYYADTVKGRFTISRDNPKNILFLQMTSLRSEDTAMYYCARDITTATFAYWGQGTLVTVSA
VL: DVVMTQTPLSLPVSLGDQASISCRSSQSLVHSNGNTYLHWYLQKPGQSPKLLIYKVSNRFSGVPDRFSGSGSGTDFTLKISRVEAEDLGVYFCSQSTHVPWTFGGGTKLEIKR
notes: Mouse variable domains, expressed recombinantly with human IgG1 wildtype Fc; also called Series 8 mAb

hCRHR1 Reporter IC50 [1]: 3.72 nM
EC50 [2]: 0.016 nM
EC50 [3]: 0.014 nM
B2: PR302335 (antibody, human IgG1, kappa, V domains shown)
VH: B1 VH with M12V, V23A, S56T, I58F, I78T, Y107F
VL: B1 VL with M4L, A19V, S28N, V30L, S32N, K50R, S81T, V99I
notes: as for B1

hCRHR1 Reporter IC50 [1]: 1.92 nM
EC50 [2]: 0.022 nM
EC50 [3]: 0.035 nM
B3: PR302333 (antibody, human IgG1, kappa, V domains shown)
VH: QIQLVQSGPELKKPGETVKISCKASGYTFTNFGMNWVKQAPGKVLKWMGWINTYTGEPIYADDFKGRFAFSLETSASAAYLQINNLKNEDTATYFCSRSTMITTGGVFAYWGQGTLVTVSA
VL: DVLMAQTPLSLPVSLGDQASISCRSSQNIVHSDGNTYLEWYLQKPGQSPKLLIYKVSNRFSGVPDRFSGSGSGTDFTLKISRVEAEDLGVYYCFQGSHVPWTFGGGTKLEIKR
notes: Mouse variable domains, expressed recombinantly with human IgG1 wildtype Fc; also called Series 7 mAb

hCRHR1 Reporter IC50 [1]: 1.38 nM
EC50 [2]: 0.015 nM
EC50 [3]: 0.028 nM
B4: PR302309 (antibody, human IgG1, kappa, V domains shown)
VH: B3 VH with F32Y, A61T, A78T
VL: B1 VL with V3L, T5A, S28T, L29I, N33D, H39E, F92Y, S94F, S96G, T97S
notes: as for B3

hCRHR1 Reporter IC50 [1]: 1.93 nM
EC50 [2]: 0.072 nM
EC50 [3]: 0.107 nM
B5: PR302332 (antibody, human IgG1, kappa, V domains shown)
VH: B3 VH with N35H, D62A, A78T
VL: B1 VL with V3L, T5A, L29I, N33D, H39E, F92Y, S94F, S96G, T97S
notes: as for B3

hCRHR1 Reporter IC50 [1]: 0.545 nM
EC50 [2]: 0.03 nM
EC50 [3]: 0.043 nM
B6: PR302328 (antibody, human IgG1, kappa, V domains shown)
VH: EVKLVESGGGLVKPGGSLKLSCAASGFTFSSYAMSWVRQTPEKRLEWVASIRSGGTTYYPDSVKGRFTISRDNARNILYLQMSSLRSEDTAIYYCTRGIDWGQGTLVTVSA
VL: NIVMTQTPKFLLVSAGDRVTITCKASQSVNNDVAWYQQKPGQSPKLLIYYASNRYTGVPDRFTGSGYGTDFTFTISTVQAEDLAVYFCQQDYSSWTFGGGTKLEIKR
notes: Mouse variable domains, expressed recombinantly with human IgG1 wildtype Fc; also called Series 9 mAb

hCRHR1 Reporter IC50 [1]: 0.546 nM
EC50 [2]: 0.021 nM
EC50 [3]: 0.026 nM
B7: PR302334 (antibody, human IgG1, kappa, V domains shown)
VH: B6 VH with S31T
VL: B6 VL with V19I, K102N
notes: as for B6

hCRHR1 Reporter IC50 [1]: 0.39 nM
EC50 [2]: 0.02 nM
EC50 [3]: 0.016 nM
B8: PR302331 (antibody, human IgG1, kappa, V domains shown)
VH: B6 VH with T40S
VL: B6 VL with T22A
notes: as for B6

hCRHR1 Reporter IC50 [1]: 0.852 nM
EC50 [2]: 0.018 nM
EC50 [3]: 0.018 nM
B9: PR302339 (antibody, human IgG1, kappa, V domains shown)
VH: B6 VH with M34L
VL: B6 VL
notes: as for B6

EC50 [4]: 0.045 nM
hCRHR1 Luciferase Reporter Assay IC50 [5]: 4.6 nM
mCrhr1 Luciferase Reporter Assay IC50 [5]: 11.8 nM
B10: PR005657 (antibody, human IgG1, kappa, V domains shown)
VH: EVQLVESGGVLVQPGGSLRLSCAASGFTFSSYWMTWVRQAPGKGLEWVANIKQDASEKYYVDSVKGRFTISRDNAKNSLFLQMNSLRAEDTAVYYCARTLIFDYWGQGTLVTVSS
VL: DIVMTQSPLSLPVTPGEPASISCRSSQSLLHSTGYNSLEWYLQKPGQSPQLLIYLGSNRASGVPDRFSGSGSGTDFTLKISRVEAEDVGIYYCMQTLQTPITFGQGTRLEIKR
notes: PTM-removal variant of PR004290

hCRHR1 Reporter IC50 [1]: 3.13 nM
EC50 [2]: 0.023 nM
EC50 [3]: 0.023 nM
B11: PR004289 (antibody, human IgG1, kappa, V domains shown)
VH: B10 VH with T28I, A55G
VL: B10 VL
notes: Expressed recombinantly with human IgG1 wildtype Fc; also called Hybridoma Clone 16g2; Series 1 mAb

hCRHR1 Reporter IC50 [1]: 18.1 nM
EC50 [2]: 0.033 nM
B12: PR301612 (antibody, human IgG1, kappa, V domains shown)
VH: EVKLEESGGGLVQPGGSIKLSCVASGFTFSGAWMAWVRQSPEKGLEWVAEIKNKANNHATFYAESVKGRFIISRDDSKSSVYLQMNSLRAEDTGTYYCTLPDVWGTGTTVTVSS
VL: QIVLTQSPAIMSASPGERVTISCSASSSVSNMYWYLQKPGSSPKPWIYRTSNLASGVPARFSGSGSGTSYSLTISSMEAEDVATYYCQQYHSFPRTFGGGTKLEIKR
notes: Mouse variable domains, expressed recombinantly with human IgG1 wildtype Fc; also called Series 4 mAb
